From the supplement of paper PMC9112550, “Optimization of the antimicrobial peptide Bac7 by deep mutational scanning” (BMC Biology, 2022)

System: Escherichia coli TOP10
Test: shrunken log2 fold change of peptide-encoding DNA abundance (4.5 h post-induction vs induction); higher = less antimicrobial activity (less host growth inhibition)
Conditions: time post-induction: 4.5 h; library: site-saturation at positions 5, 18, 19, 20
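Note: peptides expressed intracellularly from a pBAD plasmid library in pooled LB shake-flask culture, induced with 0.3% L-arabinose, DNA abundance read by NGS, three biological replicates, DESeq2 with apeglm shrinkage.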

| Sequence | shrunken log2 fold change |
| --- | --- |
| RRIRPRPPRLPRPRPRPPPCPRP | 0.384 |
| RRIRWRPPRLPRPRPRPCDPPRP | 0.0863 |
| RRIRCRPPRLPRPRPRPRCGPRP | 0.191 |
| RRIRIRPPRLPRPRPRPTTHPRP | -0.441 |
| RRIRHRPPRLPRPRPRPDHHPRP | 0.0587 |
| RRIRRRPPRLPRPRPRPKTLPRP | 0.146 |
| RRIRWRPPRLPRPRPRPQWRPRP | -0.0345 |
| RRIRRRPPRLPRPRPRPYNVPRP | -0.181 |
| RRIRKRPPRLPRPRPRPWCGPRP | 0.153 |
| RRIRHRPPRLPRPRPRPVPPPRP | 0.244 |
| RRIRLRPPRLPRPRPRPSWAPRP | -0.098 |
| RRIRIRPPRLPRPRPRPPEFPRP | -0.0754 |
| RRIRLRPPRLPRPRPRPWNRPRP | -0.0226 |
| RRIRHRPPRLPRPRPRPEKIPRP | 0.0327 |
| RRIRGRPPRLPRPRPRPAKDPRP | 1.84 |
| RRIRTRPPRLPRPRPRPTTGPRP | -0.191 |
| RRIRHRPPRLPRPRPRPCYCPRP | -0.617 |
| RRIRPRPPRLPRPRPRPLEWPRP | -0.00787 |
| RRIRKRPPRLPRPRPRPLLYPRP | 0.0166 |
| RRIRGRPPRLPRPRPRPAHGPRP | 0.204 |

| Sequence | shrunken log2 fold change |
| --- | --- |
| RRIRARPPRLPRPRPRPLEQPRP | 0.156 |
| RRIRRRPPRLPRPRPRPTKQPRP | -0.0752 |
| RRIRGRPPRLPRPRPRPANEPRP | -0.0603 |
| RRIRNRPPRLPRPRPRPGTLPRP | -0.0615 |
| RRIRERPPRLPRPRPRPSPCPRP | -0.229 |
| RRIRKRPPRLPRPRPRPTDFPRP | 0.118 |
| RRIRSRPPRLPRPRPRPNWRPRP | 0.266 |
| RRIRVRPPRLPRPRPRPTRGPRP | 0.412 |
| RRIRQRPPRLPRPRPRPKYYPRP | -0.746 |
| RRIRLRPPRLPRPRPRPKMNPRP | -0.37 |
| RRIRIRPPRLPRPRPRPHVKPRP | -0.213 |
| RRIRPRPPRLPRPRPRPMEFPRP | 0.00564 |
| RRIRNRPPRLPRPRPRPSKMPRP | -0.22 |
| RRIRWRPPRLPRPRPRPRIMPRP | 0.12 |
| RRIRQRPPRLPRPRPRPHPCPRP | -0.0985 |
| RRIRYRPPRLPRPRPRPGLPPRP | 0.107 |
| RRIRKRPPRLPRPRPRPPTMPRP | 0.412 |
| RRIRWRPPRLPRPRPRPPQKPRP | 0.413 |
| RRIRPRPPRLPRPRPRPWSEPRP | -0.0275 |
| RRIRCRPPRLPRPRPRPQCRPRP | -0.421 |

| Sequence | shrunken log2 fold change |
| --- | --- |
| RRIRTRPPRLPRPRPRPTAIPRP | 0.0593 |
| RRIRLRPPRLPRPRPRPKSPPRP | 0.0414 |
| RRIRDRPPRLPRPRPRPDVNPRP | 0.209 |
| RRIRSRPPRLPRPRPRPDYMPRP | -0.355 |
| RRIRSRPPRLPRPRPRPWFLPRP | -0.565 |
| RRIRARPPRLPRPRPRPMWEPRP | -0.000921 |
| RRIRFRPPRLPRPRPRPNADPRP | -0.055 |
| RRIRARPPRLPRPRPRPSDRPRP | -0.0583 |
| RRIRDRPPRLPRPRPRPKPPPRP | 0.471 |
| RRIRKRPPRLPRPRPRPLDWPRP | 0.474 |
| RRIRVRPPRLPRPRPRPHYTPRP | -0.169 |
| RRIRKRPPRLPRPRPRPFWTPRP | 0.0312 |
| RRIRLRPPRLPRPRPRPNYQPRP | -0.773 |
| RRIRLRPPRLPRPRPRPGMKPRP | -0.0618 |
| RRIRKRPPRLPRPRPRPNCDPRP | 0.142 |
| RRIRDRPPRLPRPRPRPNGNPRP | -0.169 |
| RRIRQRPPRLPRPRPRPLIHPRP | -0.708 |
| RRIRPRPPRLPRPRPRPNDSPRP | -0.442 |
| RRIRKRPPRLPRPRPRPFWAPRP | 0.659 |
| RRIRARPPRLPRPRPRPDILPRP | 0.0584 |
